Results taken from the nanobody polyreactivity screen of Harvey et al. (2022).

Test: yeast display, Sf9 membrane polyspecificity reagent, FACS + sequencing; frameworks hold sequencing errors
Outline: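 Genes from sorted yeast were amplified by colony PCR, read by MiSeq 2 × 250 sequencing and filtered on CDR length. These cells carried a synthetic nanobody library in Saccharomyces cerevisiae BJ5465 and were sorted by FACS into low and high (top ~1%) gates on anti-HA and streptavidin fluorescence. Polyreactivity is labelled according to the gate of origin.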

Question: Which “polyreactivity (PSR sort gate)” value does the source give for “QVQLVESGGGLVQAGVSLRLSYADSGPIFYKYVMGWYRQAPGKEREMDAAINRSGGTTYYADSVKGRFTISRDKAMNTVYLQMNRLKREDTAVYYCNATLPDYWRYYYYQCGDDYWGQGTQVTVSS” here?
Answer: low polyreactivity

Question: With “QDQLVESGGGLVQAGGSLRLSCAASGRTFSYNTMGWYRQAPGKERELVAAITRSGGSTYYADSVKGRFTISRDNAKNTVYLQINSLKPEDTAVYYCNARSWYWGQGTQVTVSS” as the sequence, how does the “polyreactivity (PSR sort gate)” value read?
Answer: high polyreactivity

Question: Which “polyreactivity (PSR sort gate)” value does the source give for “QVQLVESGGGLVQPGGSLRLSCAASGRIFIVNAMGWYRQAPGKERELVAAISRRGGSTYYADSVKGRFTISRDIAKNTVYLQMNSLKPEDTAVYYCNAVGGRYTGWRYDYWGQGTQVTVSS” here?
Answer: high polyreactivity

Question: With “QVQLVESGGGLVQAGGSLRLSCAASGSTFYTNAMGWYRQAPGKERELVAAITSSVGSTHYADSVKGRFTISRDNAKNTVYIQMNSLKPEDTAVYYCAATFGYGRYGYWGQGTQVTVSS” as the sequence, how does the “polyreactivity (PSR sort gate)” value read?
Answer: low polyreactivity

Question: With “QVQLVESGGGLVQAGGSLRLSCAASGFIFSRYAMGWYRQAPGKERELVAAISWSGASTYYADSVKGRFTISRDNAKNTVYLQMNSLKPEDTAVYYCNAGYYRGEGFYTYDYWGQGTQVTVSS” as the sequence, how does the “polyreactivity (PSR sort gate)” value read?
Answer: high polyreactivity

Question: For “QVQLVESGGGLVQAGGSLRLSCAASGFIFRRYTMGWYRQAPGKERELVATITRSVNTDYADSVKGRFTFSRDNAKNTVYLQMNSLKPEDTAVYYCAARKYYYFPVAYDYWGQGTQVTVSS”, which “polyreactivity (PSR sort gate)” value is on record?
Answer: high polyreactivity

Question: With “QVQLVESGGGLVQAGGTLRLICAATGRTFDFNAMGWYRQAPGKERELVAAITESGGSTYYADSVKGRFTISRDNAKNTVYLQMNSLKPEDTAVYYCAVAGNYYRDYPEVSYFSIYNYWGQGTQVTVSS” as the sequence, how does the “polyreactivity (PSR sort gate)” value read?
Answer: low polyreactivity

Question: Which “polyreactivity (PSR sort gate)” value does the source give for “QVQVLESGGGLVQAGGSLRLSCAASGSIFDFYAMGWYRQAPGKDRELVAAISYRGGSTYADSVKGRFTISRDNAKNTVYLQMNSLKPEDTAVYYCAKVPDYRFEYWGQGTQVTVSS” here?
Answer: high polyreactivity

Question: Which “polyreactivity (PSR sort gate)” value does the source give for “QVQLVESGGGLVQAGGSLRLSCAASGSIFPRYAMGWYRQAPGKEREFVAAITGSGSSTYYADSVKGRFTISRDNAKNTVYLQMNSLKPEDTAVYYCAARKARPPFPHPFDYYWGQGTQVTVSS” here?
Answer: low polyreactivity

Question: For “QVQLVESGGGLVQAGGRLRLSCAASGSTFQQYGMGWYRQAPGKERELVAAISGGVSTYYADSLKGLFTISRDHAKNTVYLQMYSLKPEDTAVYYCNADTSYSEWGSWYYEYDYWGQGTQVTVSS”, which “polyreactivity (PSR sort gate)” value is on record?
Answer: low polyreactivity

Question: With “QVQLVESGGGLVQAGGSLRISCAASGRTFKSYAMGWYRQAPGKERELVAAISSSGGRTFYADSVKGRFTISRDNAKNTVYLQMNSLKPEDTAVYYCNARYCYRYGGYKPVGGYYWGQGTQVTVSS” as the sequence, how does the “polyreactivity (PSR sort gate)” value read?
Answer: high polyreactivity

Question: For “QVQLVESGGGLVQAGGSLRLSCPASGSIFRFYTMGWYRQAPGKERELVASITWTGGSSYYADSVKGRFTISRDNAKNTVYLQMNSLKPEDTAVYYCAARRYLRLVGRYDYWGQGTQVTVSS”, which “polyreactivity (PSR sort gate)” value is on record?
Answer: low polyreactivity

Question: With “QVQLVESGGGLVQAGGSLRLSCAASGRIFRYYAMGWYRQAPGIERELVAAISYRGGSTYYADSVKGRFTISRDNAKNTVYLQMNSLKPEDTAVYYCNIVPRIDTRYDYWGQGTQVTVSS” as the sequence, how does the “polyreactivity (PSR sort gate)” value read?
Answer: high polyreactivity

Question: With “QVQLVESGGGLVQAGGSLRVSCAASGFIFYGYTMGWYREAPGKERELVARISRRGGSTYYADSVKGRFTISRDNAKNTVYLQMNSLKPEDTAVYYCATRALGHFDWGQGTQVTVSS” as the sequence, how does the “polyreactivity (PSR sort gate)” value read?
Answer: low polyreactivity

Question: Which “polyreactivity (PSR sort gate)” value does the source give for “QVQLVESGGGLVQAGGSLRLSCAASGITLNGYVMRWYRQAPGKEREFVAVISSRGGSTYYADSVKGRFTISRDNAKNTVYLQMNSLKPEDTAVYYCAARYVREYNYWGQGTQVTVSS” here?
Answer: high polyreactivity

Question: Which “polyreactivity (PSR sort gate)” value does the source give for “QVQLVESGGGLVQAGGRLRLRCAASGSIFSPNAMGWYRQAPGKERELVATISFSGGRTYYADSVKGRFTISRDNAKNSVYLQMNSLKPEDTAVYYCAKAYYYTDMDYWGQGTQVTVSS” here?
Answer: low polyreactivity

Question: With “QVQLVESGGGLVQAGGSLRLSCAASGSTFSTYAMGWYRQAPGKERELVARITRSDTGTYYADSVKGRFTISRDNAKNTVYLQMNSLKPEDTAVYYCAADGWYDDSGWYYGYDYWGQGTQVTVSS” as the sequence, how does the “polyreactivity (PSR sort gate)” value read?
Answer: low polyreactivity

Question: For “QVHLVESGGGLVQAGGSLRLSCAASGRIFIYYAMGWYRQAPGKERELVAAISWCGGRTYYADSVKGRFTISRDNAKNTVYLQMNSLKPEDTAVYYCAAGVYTGQHEYDYWGQGTQVTVSS”, which “polyreactivity (PSR sort gate)” value is on record?
Answer: low polyreactivity

Question: For “QVQLGESGGGLVQAGGSLRLSCAASGITFNGYAMGWSRQAPGKERQLVASAIRGTSGSTYYADSVKGRFTISRDNAKNTDYLQMNSLKPEDTTVYYCNADIVIQGVIYYYRNFEYWGQGTQVTVSS”, which “polyreactivity (PSR sort gate)” value is on record?
Answer: low polyreactivity

Question: Which “polyreactivity (PSR sort gate)” value does the source give for “QVQLVESGGGLVQAGGSLRLTCAASGFIFPNNAMGWYRQAPGKESELVAAISYSGGSTNYADSVKARFTISRDNAKNTVYLQMNSLKPEDTAVYYCAKADPAYLWGLREYDYWGQGTQVTVSS” here?
Answer: low polyreactivity

Question: With “QVQLQESGGGLVQAGGSLRLSCAATGTIFTDRFMGWYRQAPGKERELVAGISPGTSTNYADSVKGRFTISRDNAKNTVYLQMNSLKPEDTAVYYCAADWSTGNTLPYWGQGTQVTVSS” as the sequence, how does the “polyreactivity (PSR sort gate)” value read?
Answer: high polyreactivity

Question: Which “polyreactivity (PSR sort gate)” value does the source give for “QVQLVESGGGLVQAGGSLRLSCAASGGIFIVNAMGWYRPAPGKERELVAAITLSGGSTYYADSVKGRFTISRDNAKNTVYFQMNSLKPEDTAVYYCNKDYYPGSYDYWGQGTQVTVSS” here?
Answer: low polyreactivity
